Measurements published in PMC10667097, “Activity-based profiling of cullin–RING E3 networks by conformation-specific probes” (Nature Chemical Biology, 2023).

Key:
[1] = target: T1, neddylated CUL2 (endogenous) (human (endogenous in 293T), UniProt Q13617;Q15843, NEDD8-modified | linked to the cullin); test: affinity purification with mass spectrometry; IPs with biotinylated N8C_Fab3b on streptavidin beads from lysates of human cells (293T, K562, panel of ten lines), N8-block; cells treated with DMSO, MLN4924, CSN5i-3, Indisulam, MZ1, ferric ammonium citrate or TNF (with MG132 and CB-5083 before stimuli); DIA MS; conditions: one partner purified
T1 construct: CUL2, human; NEDD8, human, the conjugated form; also called NEDD8-linked CUL2; source: endogenous, 293T lysate

[2] = target: T2, neddylated CUL3 (endogenous) (human (endogenous in K562, 293T), UniProt Q13618;Q15843, NEDD8-modified | linked to the cullin); test: co-IP; biotinylated Fab on streptavidin magnetic beads, K562 lysates (cells treated with DMSO, MLN4924 or CSN5i-3; N8-block), 45 min at 4 °C, immunoblotting; conditions: one partner purified
T2 construct: CUL3, human; NEDD8, human, the conjugated form; also called NEDD8-linked CUL3; source: endogenous, K562 lysate; endogenous, 293T lysate

[3] = target: T3, neddylated CUL1 C-terminal region bound to RBX1 (Homo sapiens, UniProt Q13616;P62877;Q15843, L421E | V451E | V452K | Y455K, NEDD8 linked to a specific site in the WHB subdomain | C-terminus linked to the cullin (isopeptide)); test: ELISA; proteins (2 µg/ml) coated on 384-well MaxiSorp plates overnight at 4 °C; Fab titrated (Fig. 1c at 50 nM Fab); detected with anti-M13-HRP (phage) or anti-Kappa-HRP (protein); EC50 by nonlinear regression; the results call the Fabs phage-displayed, the methods give EC50 for purified Fab proteins; conditions: both partners purified
T3 construct: CUL1, human, C-terminal region residues 411-776 with solubilizing substitutions; RBX1, human; NEDD8, human, the conjugated form; also called neddylated CUL1–RBX1; source: neddylated in vitro; not shown: MBP, N-terminal, cleaved; GST, N-terminal, cleaved; copies: + +

[4] = target: T4, purified recombinant CUL3 modified by NEDD8 (band on the immunoblot) (Homo sapiens, UniProt Q13618;Q15843, NEDD8 linked to a specific site in the WHB subdomain | C-terminus linked to the cullin (isopeptide)); test: far-Western, overlay or dot blot; 200 ng neddylated or unneddylated recombinant CUL1-5 after SDS-PAGE on PVDF; 2 µg/ml biotinylated Fab as primary binder, Streptavidin-HRP; conditions: both partners purified
T4 construct: CUL3, human; NEDD8, human, the conjugated form; Resolved by SDS-PAGE, so RBX1 is not in the band; also called neddylated CUL3–RBX1; source: recombinant, purified, neddylated in vitro; not shown: GST, N-terminal, cleaved
T4 sequence (Q13618 whole entry, chain 1 of 2): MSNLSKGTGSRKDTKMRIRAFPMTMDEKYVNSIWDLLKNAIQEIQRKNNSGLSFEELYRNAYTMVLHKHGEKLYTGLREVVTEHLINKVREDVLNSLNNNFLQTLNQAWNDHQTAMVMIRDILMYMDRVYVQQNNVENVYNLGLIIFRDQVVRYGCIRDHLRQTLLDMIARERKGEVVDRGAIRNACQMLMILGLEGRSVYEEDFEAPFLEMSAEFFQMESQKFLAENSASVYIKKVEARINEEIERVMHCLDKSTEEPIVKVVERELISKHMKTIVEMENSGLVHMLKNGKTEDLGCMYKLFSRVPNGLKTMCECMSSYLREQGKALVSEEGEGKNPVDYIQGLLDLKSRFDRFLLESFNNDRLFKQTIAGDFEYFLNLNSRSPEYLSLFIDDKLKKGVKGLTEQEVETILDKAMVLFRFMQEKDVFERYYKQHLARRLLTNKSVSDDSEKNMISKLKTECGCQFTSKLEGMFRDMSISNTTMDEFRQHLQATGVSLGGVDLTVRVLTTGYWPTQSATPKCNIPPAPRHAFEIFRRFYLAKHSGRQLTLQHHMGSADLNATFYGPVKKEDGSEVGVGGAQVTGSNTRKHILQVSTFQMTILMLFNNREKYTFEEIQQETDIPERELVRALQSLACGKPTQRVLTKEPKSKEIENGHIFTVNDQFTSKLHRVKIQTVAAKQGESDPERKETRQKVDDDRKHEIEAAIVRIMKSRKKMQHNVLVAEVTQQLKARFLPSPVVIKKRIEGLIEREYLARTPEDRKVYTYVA
T4 sequence (Q15843 1-76, chain 2 of 2): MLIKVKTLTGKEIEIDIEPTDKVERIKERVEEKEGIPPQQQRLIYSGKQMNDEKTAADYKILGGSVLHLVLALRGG

T2 sequence (Q13618 whole entry, chain 1 of 2): as the sequence (Q13618 whole entry, chain 1 of 2) above
T2 sequence (Q15843 1-76, chain 2 of 2): as the sequence (Q15843 1-76, chain 2 of 2) above
T1 sequence (Q13617 whole entry, chain 1 of 2): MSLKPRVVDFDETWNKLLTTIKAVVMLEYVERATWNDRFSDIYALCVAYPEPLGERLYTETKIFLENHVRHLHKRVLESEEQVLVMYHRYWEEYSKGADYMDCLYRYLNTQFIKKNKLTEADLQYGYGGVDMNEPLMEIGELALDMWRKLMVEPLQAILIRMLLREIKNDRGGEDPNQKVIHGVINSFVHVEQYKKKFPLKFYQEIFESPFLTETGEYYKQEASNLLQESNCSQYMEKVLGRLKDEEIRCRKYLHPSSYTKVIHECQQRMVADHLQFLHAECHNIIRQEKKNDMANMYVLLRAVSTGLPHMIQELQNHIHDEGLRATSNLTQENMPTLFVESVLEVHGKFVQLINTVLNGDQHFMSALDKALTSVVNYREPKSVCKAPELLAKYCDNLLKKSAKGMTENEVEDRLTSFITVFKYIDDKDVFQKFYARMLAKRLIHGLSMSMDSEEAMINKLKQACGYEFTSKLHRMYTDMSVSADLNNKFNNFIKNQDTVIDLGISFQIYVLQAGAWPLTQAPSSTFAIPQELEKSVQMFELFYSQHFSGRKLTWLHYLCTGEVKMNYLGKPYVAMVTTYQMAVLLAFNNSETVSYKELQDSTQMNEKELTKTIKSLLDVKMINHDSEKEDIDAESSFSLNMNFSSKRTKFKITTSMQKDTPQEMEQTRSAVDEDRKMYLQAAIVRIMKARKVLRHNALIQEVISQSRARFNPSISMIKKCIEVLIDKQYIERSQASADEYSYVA
T1 sequence (Q15843 1-76, chain 2 of 2): as the sequence (Q15843 1-76, chain 2 of 2) above
T3 sequence (Q13616 411-776 L421E/V451E/V452K/Y455K, chain 1 of 3): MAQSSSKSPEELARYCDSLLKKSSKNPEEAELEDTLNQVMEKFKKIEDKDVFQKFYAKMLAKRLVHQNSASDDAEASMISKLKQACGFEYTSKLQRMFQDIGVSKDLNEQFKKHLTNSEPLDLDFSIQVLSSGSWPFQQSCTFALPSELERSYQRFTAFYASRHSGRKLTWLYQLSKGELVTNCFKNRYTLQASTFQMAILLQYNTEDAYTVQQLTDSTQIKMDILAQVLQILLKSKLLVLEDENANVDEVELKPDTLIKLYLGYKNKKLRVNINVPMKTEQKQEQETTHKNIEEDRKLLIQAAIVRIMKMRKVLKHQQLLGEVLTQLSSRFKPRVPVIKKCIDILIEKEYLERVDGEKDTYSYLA
T3 sequence (P62877 whole entry, chain 2 of 3, the tested form may be a part): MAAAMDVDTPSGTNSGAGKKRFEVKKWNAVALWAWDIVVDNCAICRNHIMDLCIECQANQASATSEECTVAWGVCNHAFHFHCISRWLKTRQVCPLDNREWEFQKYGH
T3 sequence (Q15843 1-76, chain 3 of 3): as the sequence (Q15843 1-76, chain 2 of 2) above

| binding result [1] | binding result [2] | fold higher EC50 than N8C_Fab1b [3] | binding result [4] | Binder |
| --- | --- | --- | --- | --- |
| binds | binds |  |  | N8C_Fab3b, biotinylated (Fab, V domains shown, as the heavy chain of m5; as the light chain of m5; GS linker between the heavy chain and the AviTag-His6 tag; Held on streptavidin beads in the IPs; source: E. coli Rosetta (DE3), purified, biotinylated in vitro with BirA; not shown: AviTag, C-terminal, kept) VH: EVQLVESGGGLVQPGGSLRLSCAASGFNFSSSSIHWVRQAPGKGLEWVASISSSYGYTYYADSVKGRFTISADTSKNTAYLQMNSLRAEDTAVYYCARDPFGWAAHGVGLDYWGQGTLVTVSS VL: DIQMTQSPSSLSASVGDRVTITCRASQSVSSAVAWYQQKPGKAPKLLIYSASSLYSGVPSRFSGSRSGTDFTLTISSLQPEDFATYYCQQSSYSLITFGQGTKVEIK |
|  |  | ~3 fold |  | N8C_Fab4a (Fab, V domains shown) VH: EVQLVESGGGLVQPGGSLRLSCAASGFNLSYYSMHWVRQAPGKGLEWVASISPYYSYTYYADSVKGRFTISADTSKNTAYLQMNSLRAEDTAVYYCARSHWASYYAGAFDYWGQGTLVTVSS VL: DIQMTQSPSSLSASVGDRVTITCRASQSVSSAVAWYQQKPGKAPKLLIYSASSLYSGVPSRFSGSRSGTDFTLTISSLQPEDFATYYCQQGYAFWHPITFGQGTKVEIK |
|  | binds |  | binds | N8C_Fab4a, biotinylated (Fab, V domains shown, as the heavy chain of m6; as the light chain of m6; GS linker between the heavy chain and the AviTag-His6 tag; source: E. coli Rosetta (DE3), purified, biotinylated in vitro with BirA; not shown: AviTag, C-terminal, kept) VH: EVQLVESGGGLVQPGGSLRLSCAASGFNLSYYSMHWVRQAPGKGLEWVASISPYYSYTYYADSVKGRFTISADTSKNTAYLQMNSLRAEDTAVYYCARSHWASYYAGAFDYWGQGTLVTVSS VL: DIQMTQSPSSLSASVGDRVTITCRASQSVSSAVAWYQQKPGKAPKLLIYSASSLYSGVPSRFSGSRSGTDFTLTISSLQPEDFATYYCQQGYAFWHPITFGQGTKVEIK |
